Reference: US20210238289A1
Each block holds one substance with its values, some of them ahead of it.

Tests used:
CD32a = CD32a (UniProt P12318); experiment: solution competition SPR (Biacore)
[1] = biological target: VLA-4 on tumor cell lines (UniProt P13612); experiment: flow cytometry on H929 cells (MM)
[2] = biological target: VLA-4 on tumor cell lines (UniProt P13612); experiment: flow cytometry on JM1 cells (CLL)
[3] = biological target: VLA-4 on tumor cell lines (UniProt P13612); experiment: flow cytometry on KG1 cells (AML)
[4] = biological target: VLA-4 on tumor cell lines (UniProt P13612); experiment: flow cytometry on U266 cells (MM)
[5] = biological target: VLA-4 on tumor cell lines (UniProt P13612); experiment: flow cytometry on HL60 cells (AML)
[6] = biological target: VLA-4 on tumor cell lines (UniProt P13612); experiment: flow cytometry on Mec1 cells (CLL)
[7] = biological target: VLA-4 on tumor cell lines (UniProt P13612); experiment: inhibition of adhesion of JM1 cells to VCAM1-Ig-coated wells
[8] = biological target: VLA-4 on tumor cell lines (UniProt P13612); experiment: inhibition of adhesion of KG1 cells to VCAM1-Ig-coated wells
[9] = biological target: VLA-4 on tumor cell lines (UniProt P13612); experiment: inhibition of adhesion of H929 cells to VCAM1-Ig-coated wells
[10] = biological target: VLA-4 on tumor cell lines (UniProt P13612); experiment: inhibition of adhesion of HL60 cells to VCAM1-Ig-coated wells
[11] = biological target: VLA-4 on tumor cell lines (UniProt P13612); experiment: inhibition of adhesion of Mec1 cells to VCAM1-Ig-coated wells
[12] = biological target: VLA-4 on tumor cell lines (UniProt P13612); experiment: inhibition of adhesion of U266 cells to VCAM1-Ig-coated wells
[13] = biological target: VLA-4 on tumor cell lines (UniProt P13612); experiment: inhibition of adhesion of KG1 cells to fibronectin-coated wells
[14] = biological target: VLA-4 on tumor cell lines (UniProt P13612); experiment: inhibition of adhesion of H929 cells to fibronectin-coated wells
[15] = biological target: VLA-4 on tumor cell lines (UniProt P13612); experiment: inhibition of adhesion of HL60 cells to fibronectin-coated wells
[16] = biological target: VLA-4 on tumor cell lines (UniProt P13612); experiment: inhibition of adhesion of Mec1 cells to fibronectin-coated wells
[17] = biological target: VLA-4 on tumor cell lines (UniProt P13612); experiment: inhibition of adhesion of U266 cells to fibronectin-coated wells
[18] = biological target: α4β1 (VLA-4) as used in the competition ELISAs (UniProt P13612); experiment: competition ELISA; mixture of mouse HP1/2 with test mAb binding to integrin
[19] = biological target: α4β1 (VLA-4) as used in the competition ELISAs (UniProt P13612); experiment: competition ELISA; integrin preincubated with test mAb, then murine HP1/2 as competing reagent
[20] = biological target: VLA receptors (alpha-4 integrin) of cynomolgus monkeys in vivo (cynomolgus monkey); experiment: free receptor measured in cynomolgus monkeys after a single IV dose
[21] = biological target: VLA receptors (alpha-4 integrin) of cynomolgus monkeys in vivo (cynomolgus monkey); experiment: model-estimated (direct Emax PKPD model) EC50 for the formation of drug-bound VLA in cynomolgus monkeys

Sequence of TYSABRI (natalizumab) (antibody) (VH): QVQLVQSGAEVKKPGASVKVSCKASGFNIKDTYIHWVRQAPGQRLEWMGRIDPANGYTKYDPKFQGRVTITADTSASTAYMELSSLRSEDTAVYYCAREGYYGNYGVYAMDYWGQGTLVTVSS
Sequence of TYSABRI (natalizumab) (antibody) (VL): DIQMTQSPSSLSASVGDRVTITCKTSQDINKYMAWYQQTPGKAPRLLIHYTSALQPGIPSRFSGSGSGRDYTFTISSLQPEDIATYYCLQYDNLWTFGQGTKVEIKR

IC50 (CD32a): 1280 µM
Substance: EAG2379 (hu5c8 IgG1 T299E) (antibody)

EC50 [1]: 0.00091 µM
EC50 [2]: 0.00021 µM
EC50 [3]: 0.00019 µM
EC50 [4]: 0.00046 µM
EC50 [5]: 0.00011 µM
EC50 [6]: 0.00011 µM
IC50 [7]: 0.00012 µM
IC50 [8]: 0.0001 µM
IC50 [9]: 0.00135 µM
IC50 [10]: 0.00091 µM
IC50 [11]: 0.07 nM
IC50 [12]: 0.00013 µM
IC50 [13]: 0.05 nM
IC50 [14]: 0.00021 µM
IC50 [15]: 0.00016 µM
IC50 [16]: 0.0001 µM
IC50 [17]: 0.00014 µM
IC50 [18]: 0.00141 µM
IC50 [19]: 0.00105 µM
Substance: HuHP1/2 (antibody)

receptor occupancy [20]: > 90%
EC50 [21]: 6.4 ng/mL
Substance: TYSABRI (natalizumab) (antibody)
